In article PMC3689846:

Legend:
[1] = target: Core.BaL-GT1 (germline-targeting variant of core gp120) (HIV-1 strain BaL (from the name)); experiment: SPR
[2] = target: eOD-GT1 (HIV-1 strain HxB2); experiment: SPR

Binder | Kd [1] | Kd [2]
12A12 (mature) (antibody, V domains shown) VH: SQHLVQSGTQVKKPGASVRISCQASGYSFTDYVLHWWRQAPGQGLEWMGWIKPVYGARNYARRFQGRINFDRDIYREIAFMDLSGLRSDDTALYFCARDGSGDDTSWHLDPWGQGTLVIVSA VL: DIQMTQSPSSLSASVGDRVTITCQAGQGIGSSLQWYQQKPGKAPKLLVHGASNLHRGVPSRFSGSGFHTTFSLTISGLQRDDFATYFCAVLEFFGPGTKVEIK | 1 nM | –
NIH45-46 (mature) (antibody, V domains shown) VH: QVRLSQSGGQMKKPGESMRLSCRASGYEFLNCPINWIRLAPGRRPEWMGWLKPRGGAVNYARKFQGRVTMTRDVYSDTAFLELRSLTSDDTAVYFCTRGKYCTARDYYNWDFEHWGRGAPVTVSS VL: EIVLTQSPATLSLSPGETAIISCRTSQSGSLAWYQQRPGQAPRLVIYSGSTRAAGIPDRFSGSRWGADYNLSISNLESGDFGVYYCQQYEFFGQGTKVQVD | – | 3 nM
